Source: PMC12311110, “Mapping of endosomal proximity proteomes reveals Retromer as a hub for RAB GTPase regulation” (Nature Communications, 2025)

Molecular target: mVps29 (mouse (printed as mVps29), UniProt Q9QZ88 1-182)
Experiment: crystal structure; hanging drop, 20 °C; 0.1 M Tris-HCl pH 8.5, 0.2 M MgCl2, 30% PEG4000; 3-fold molar excess of peptide over mVps29
Conditions: both partners purified

binding result: binds
B1: human DENND4C peptide 1189-1206 (peptide)
peptide: AKVVQREDVETGLDPLSL
notes: also called hDENND4C_(1189-1206); DENND4C PL motif-containing peptide; source: synthetic peptide
